# B1: ADI-PEG: ADI covalently modified with PEG (with or without a linking group) (protein, listed as Mycoplasma hominis)
# chain: MSVFDSKFNGIHVYSEIGELETVLVHEPGREIDYITPARLDELLFSAILESHDARKEHQSFVKIMKDRGINVVELTDLVAETYDLASKAAKEEFIETFLEETVPVLTEANKEAVRAFLLSKPTHEMVEFMMSGITKYELGVESENELIVDPMPNLYFTRDPFASVGNGVTIHFMRYIVRRRETLFARFVFRNHPKLVKTPWYYDPAMKMSIEGGDVFIYNNETLVVGVSERTDLDTITLLAKNIKANKEVEFKRIVAINVPKWTNLMHLDTWLTMLDKNKFLYSPIANDVFKFWDYDLVNGGAEPQPQLNGLPLDKLLASIINKEPVLIPIGGAGATEMEIARETNFDGTNYLAIKPGLVIGYDRNEKTNAALKAAGITVLPFHGNQLSLGMGNARCMSMPLSRKDVKW
# modifications: PEGylated
# Experiments:
# [1] = system: human pancreatic cancer cell line MIA-PaCa2; assay: Cell death by PI-FACS (sub-G1 DNA content) and Annexin V-PI flow cytometry; type: cell-based
# Experimental: (§1) The human pancreatic cancer cell line MIA-PaCa2 was treated in vitro and in vivo with pegylated arginine deiminase (ADI-PEG) alone or in the presence of ChQ. Cell death was measured by propidium iodide (PI)-FACS to determine sub-G1 DNA content, and apoptosis was evaluated by Annexin V-PI flow cytometry. Cleavage of caspase 3 was evaluated by western blots and ELISA. Autophagy was measured by evaluating the expression levels of LC3 and […] p62 (p62) by western blots and ELISA.
# (§2) In order to determine if ADI induces apoptosis and autophagy in a caspase dependent manner, cells were incubated with either ADI-PEG or a combination of ADI-PEG and ZVAD-fmk, a pan-caspase inhibitor.
# (§3) The levels of p62, LC3B-I, and LC3B-II were measured by western blot analysis in order to examine autophagic flux.
# In order to examine whether ChQ alters the amount of apoptotic or non-apoptotic cell death when used in combination with ADI, cells were incubated with ADI-PEG alone or a combination of ADI-PEG and ChQ.
# [2] = system: human pancreatic cancer cell line MIA-PaCa2; assay: Western blot/ELISA of caspase 3 cleavage, LC3 and p62; type: cell-based; details: 72 hours
# Experimental: as §1, §2, §3
molecule,measurement,setting,value
B1,Annexin V depolarization,"[1]; 0.3 μg/mL, 72 hours, vs PBS",induced Annexin V depolarization
same,number of cells in sub-G0/G1,[1]; ADI-PEG alone,increased the number of cells in sub-G0/G1
same,LC3B conjugation with PE,[2]; dose dependent,LC3B conjugation with PE
same,caspase cleavage,[2]; dose dependent,induces caspase cleavage
same,apoptosis as measured by caspase 3 cleavage,"[2]; ADI-PEG 0.3 μg/mL, western blot",induction of apoptosis

# Source: patent publication US9333268B2, “Methods of treatment with arginine deiminase” (Polaris Group, priority 2012, dated 2016)
